Measured values published in publication PMC11341946.

Molecular target: RNA polymerase II
Assay: Re-ChIP (IP ERα then IP PolII), real time qPCR
Details: HEK293T cells, read off a plot
[1] = complement C3 enhancer, cadmium (2 µM) for 60 minutes
[2] = complement C3 enhancer, control (untreated)
[3] = complement C3 enhancer, estradiol (100 nM) for 60 minutes
[4] = lactoferrin enhancer, cadmium (2 µM) for 60 minutes
[5] = lactoferrin enhancer, control (untreated)
[6] = lactoferrin enhancer, estradiol (100 nM) for 60 minutes

Row | response [1] | response [2] | response [3] | response [4] | response [5] | response [6] | Substance
1 | 0.019 % Input | 0.0076 % Input | 0.0077 % Input | 0.014 % Input | 0.0046 % Input | 0.0061 % Input | wild-type estrogen receptor alpha (from UniProt P03372) D538G
2 | 0.015 % Input | 0.0065 % Input | 0.0073 % Input | 0.0063 % Input | 0.0022 % Input | 0.0022 % Input | wild-type estrogen receptor alpha (from UniProt P03372) Y537S
